Laboratory results from patent US20240301386A1, “Soluble Guanylyl Cyclase (GC1) Mimetic Polypeptides and Methods of Use Thereof” (Rutgers, the State University of New Jersey, priority 2023, published 2024).

Tests used:
[1] = test system: caspase-3; test: Caspase-3 activity assay in Jurkat T cells ± etoposide; assay type: cell-based, human; details: etoposide 8 μM 16 h compared to samples not treated with ETO
Description: The cells in suspension in 2 ml serum-free medium were treated with either 70% DMSO (20 μL, 0.7% final), scramble peptide, or inhibitory peptide at a final concentration of 10 μM and incubated at 37° C. for 1 h. After incubation, the cells were washed twice and incubated in complete medium at 37° C. for 8 h. The cells were then treated with (or without) etoposide (ETO) at 8 μM final at 37° C. for 16 h.
For Caspase-3 activity assays: After 16 h incubation, the cells were washed twice with cold PBS and lysed in the supplier's 1× lysis buffer (at 10 μL per 10^6 cells). After 15 min incubation on ice, the lysates were centrifuged at 16,000 g for 15 min at 4° C. and the supernatant collected. Caspase-3 activity was measured following the supplier's instructions (CASP3C-1KT, Sigma) after 2 and 3 h incubation.
Whether these observations correlated with an increased caspase-3 activity was next assessed with a colorimetric assay based on cleavage of the substrate […], under the same above conditions. […] It was concluded that disrupting the SNO-GC1→oTrx1→procaspase-3 transnitrosation cascade using a peptide inhibitory of the GC1/Trx1 interaction promotes Jurkat T-cells apoptosis.

[2] = test system: Jurkat T cells; test: Biotin-avidin switch assays of S-nitrosation in Jurkat T cells ± etoposide; assay type: cell-based, human
Description: Jurkat cells were cultured in a 6-well plate at the density of 0.25×10^6/ml in complete medium RPMI 1640 from Corning (10-040-CV) supplemented with 10% FBS and Pen-Strep and incubated at 37° C. with 5% CO2 for 24 h. The cells were collected by centrifuging at 1000 g for 5 min, washed twice with serum-free medium, and re-suspended with 2 ml serum-free medium prior to peptide treatment.
Free thiols of proteins were blocked in lysis-blocking buffer containing 50 mM Tris, pH 7.5, 150 mM NaCl, 1% Triton X-100, 1 mM EDTA, 2% SDS, 0.1 mM neocuproine, 0.2 mM PSMF, and 40 mM N-ethylmaleimide (NEM) at 50° C. for 30 min in the dark. Excess NEM was removed using cold acetone precipitation. The protein pellets were generated by centrifugating at 14000 g for 10 min at 4° C. and washed 3 times using cold acetone. […]
For biotin-avidin switch assays: After 16 h incubation, the cells were washed twice with cold PBS and lysed in lysis-blocking buffer containing 50 mM Tris, pH 7.5, 150 mM NaCl, 1% Triton X-100, 1 mM EDTA, 2% SDS, 0.1 mM neocuproine, and 40 mM NEM supplemented with PMSF and protease inhibitor cocktail. The protein concentration was measured using the Bradford method. 50 μg of each lysate was analyzed by Western blot as starting material (inputs) and 200 μg proteins of each sample were subjected to the biotin switch and avidin assays, as described elsewhere herein. […]

[3] = biological target: T1, Oxidized Trx1 (oTrx1), recombinant human Trx1 treated with 100 µM diamide, P10599
T1 chain: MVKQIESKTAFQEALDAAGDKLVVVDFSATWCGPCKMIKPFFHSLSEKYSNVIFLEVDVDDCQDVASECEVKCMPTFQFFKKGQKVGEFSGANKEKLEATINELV

[4] = biological target: T2, Oxidized GC1 (oGC1), recombinant human GC1 treated with 100 µM diamide, Q02153
T2 chain 1: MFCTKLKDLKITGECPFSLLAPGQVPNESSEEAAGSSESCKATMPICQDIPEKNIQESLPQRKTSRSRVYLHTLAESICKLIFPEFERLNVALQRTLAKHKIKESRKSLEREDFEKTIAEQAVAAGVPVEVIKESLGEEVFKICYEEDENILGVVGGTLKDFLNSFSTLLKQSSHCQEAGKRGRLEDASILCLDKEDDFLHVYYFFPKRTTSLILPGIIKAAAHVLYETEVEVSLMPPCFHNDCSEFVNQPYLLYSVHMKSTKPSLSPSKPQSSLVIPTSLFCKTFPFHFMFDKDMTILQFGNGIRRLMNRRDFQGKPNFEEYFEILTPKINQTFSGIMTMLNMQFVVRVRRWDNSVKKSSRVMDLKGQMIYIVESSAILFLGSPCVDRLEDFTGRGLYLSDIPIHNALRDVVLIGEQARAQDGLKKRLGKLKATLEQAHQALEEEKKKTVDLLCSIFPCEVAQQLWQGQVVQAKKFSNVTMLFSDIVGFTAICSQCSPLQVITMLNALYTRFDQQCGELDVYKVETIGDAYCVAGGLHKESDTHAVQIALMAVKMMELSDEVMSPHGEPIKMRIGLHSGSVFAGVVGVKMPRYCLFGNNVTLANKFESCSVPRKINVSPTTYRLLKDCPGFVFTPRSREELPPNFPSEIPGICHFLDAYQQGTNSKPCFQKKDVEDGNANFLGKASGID
T2 chain 2: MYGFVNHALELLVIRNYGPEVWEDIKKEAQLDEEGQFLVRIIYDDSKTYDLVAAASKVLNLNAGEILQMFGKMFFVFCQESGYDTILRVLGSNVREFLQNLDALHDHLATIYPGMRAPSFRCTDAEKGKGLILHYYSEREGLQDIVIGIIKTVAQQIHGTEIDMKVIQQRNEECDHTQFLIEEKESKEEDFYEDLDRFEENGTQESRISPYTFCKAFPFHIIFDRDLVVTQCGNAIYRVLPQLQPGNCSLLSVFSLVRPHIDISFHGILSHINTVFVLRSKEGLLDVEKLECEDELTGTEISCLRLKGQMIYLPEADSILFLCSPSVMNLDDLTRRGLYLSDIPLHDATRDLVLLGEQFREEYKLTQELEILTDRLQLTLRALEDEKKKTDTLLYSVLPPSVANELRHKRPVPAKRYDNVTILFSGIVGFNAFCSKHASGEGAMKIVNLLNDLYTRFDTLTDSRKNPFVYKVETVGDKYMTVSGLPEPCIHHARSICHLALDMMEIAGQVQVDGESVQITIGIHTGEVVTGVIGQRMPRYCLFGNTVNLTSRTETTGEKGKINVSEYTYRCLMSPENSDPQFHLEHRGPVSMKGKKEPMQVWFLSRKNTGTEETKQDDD

[5] = biological target: T3, Purified recombinant human soluble guanylyl cyclase (GC1), Q02153
T3 chain 1: T2 chain 1
T3 chain 2: T2 chain 2

For `COc1cc([C@@H]2c3cc4c(cc3[C@@H](O[C@@H]3O[C@@H]5CO[C@@H](C)O[C@H]5[C@H](O)[C@H]3O)[C@H]3COC(=O)[C@H]23)OCO4)cc(OC)c1O` [Etoposide], which “caspase-3 activity in Jurkat cells treated with ETO” value [1] is on record?
The value was “significant increase”.

What about the “global levels of S-nitrosation in Jurkat T cells” value ([2]; peptide 10 μM 1 h, etoposide 8 μM 16 h (FIG. 8A left panel)) of the same molecule?
The value was “did not affect”.

What about the “SNO-procaspase-3 level in Jurkat T cells” value ([2]; peptide 10 μM 1 h ± etoposide 8 μM 16 h, avidin purified, compared to DMSO and scramble peptide (FIG. 8A right panel)) of the same molecule?
Its value is “slightly reduced”.

B1: Reduced GC1 (rGC1), recombinant human GC1 treated with 10 mM DTT (protein)
chain 1: T2 chain 1
chain 2: T2 chain 2
With B1 as the molecule, how does the “conversion of oTrx1 dimers into monomers (non-reducing gel, Western blot)” value [3] read?
The value was “rGC1 converted most of oTrx1 dimer into Trx1 monomers”.

What about the “conversion of oTrx1 dimers into monomers in the presence of 125 µM scramble peptide” value [3] of the same molecule?
Its value is “the rGC1-dependent conversation of Trx1 from dimers to monomers was maintained in the presence of the scramble peptide”.

B2: Reduced Trx1 (rTrx1), recombinant human Trx1 treated with 10 mM DTT (protein)
chain: T1 chain
B2 was tested. Which “conversion of oGC1 multimers into monomers (non-reducing gel, Western blot)” value [4] did it give?
The value was “rTrx1 converted oGC1 multimers into monomers to some extent”.

And the “conversion of oGC1 multimers into monomers in the presence of 125 µM scramble peptide” value [4]?
Its value is “the reducing effect of Trx1 was maintained with the scramble peptide as control”.

B3: Thioredoxin 1 (Trx1) protein, purified (protein)
chain: T1 chain
How did the “NO-stimulated GC1 activity (1 µM DEA-NO), purified GC1 + Trx1 1:7” value [5] turn out when B3 was run?
The value was “FIG. 3A first confirmed the increased NO-stimulated activity of GC1 by Trx1”.

What about the “NO-stimulated GC1 activity, purified GC1 + Trx1 in the presence of peptide 1 (25 µM)” value [5] of the same molecule?
The value was “Trx1-dependent increase of NO-stimulated GC1 activity was similarly blunted by the 3 peptides”.

What about the “NO-stimulated GC1 activity, purified GC1 + Trx1 in the presence of peptide 2 (25 µM)” value [5] of the same molecule?
Its value is “Trx1-dependent increase of NO-stimulated GC1 activity was similarly blunted by the 3 peptides”.

What about the “NO-stimulated GC1 activity, purified GC1 + Trx1 in the presence of peptide 3 (25 µM)” value [5] of the same molecule?
The value was “Trx1-dependent increase of NO-stimulated GC1 activity was similarly blunted by the 3 peptides”.

And the “NO-stimulated GC1 activity, purified GC1 + Trx1 in the presence of the scramble peptide (25 µM)” value [5]?
The value was “the scramble peptide had no effect”.
